Test results published in the supplement of paper PMC9170038.

Tested on: MS2 coat protein
Assay: apparent KD of MS2 coat protein; designed switch direction (-1 OFF switch, 1 ON switch): -1; higher = weaker reporter binding
How it was run: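 The apparent KD reported per design is the median over clusters of curve fits to normalised cluster fluorescence. The RNA switches were transcribed on Illumina chips by stalled E. coli RNA polymerase. SNAP-549-labelled MS2 coat protein was titrated from 0.7 or 1.5 nM, doubling up to 3 µM, in Tris-HCl pH 7.5 buffer containing KCl, MgCl2, BSA, DTT, tRNA and Tween-20, with no input, 200 uM small-molecule ligand, or an oligonucleotide input.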

[1] = Eterna round: R95, input ligand: FMN 200 uM
[2] = Eterna round: R95, input ligand: microRNA oligo, concentration not stated
[3] = Eterna round: R95, input ligand: none
[4] = input ligand: microRNA oligo, concentration not stated

| Sequence | apparent KD of MS2 coat protein (input ligand: FMN 200 uM) [nM] | apparent KD of MS2 coat protein (input ligand: none) [nM] | apparent KD of MS2 coat protein [1] [nM] | apparent KD of MS2 coat protein [2] [nM] | apparent KD of MS2 coat protein [3] [nM] | apparent KD of MS2 coat protein [4] [nM] |
| --- | --- | --- | --- | --- | --- | --- |
| UCGGCGUCAGGAUAUCCAAUAUAUGACAUGAGGAUCACCCAUGUUUCCACUCGUACCUCCGGAGAAGGGACGAAUU [Ex5 #92] (Eterna round: R97, puzzle: Exclusion 5) | 33.5 | 32.1 |  |  |  |  |
| UCGGGAUGAGGAUAUACAUAGAAAUAGAUUCAUGUAAAACUACAUGAGGAUCACCCAUGUAGAAGGCAUUCCGU [Mat - Exclusion 2 - JL Mod - D58] (Eterna round: R97, puzzle: Exclusion 2) | 110 | 24.2 |  |  |  |  |
| UCGUAGGAAGGAUAUGCAUGCUUUGAUAAAUCCAGGCCUGGACAUGAGGAUCACCCAUGUAGAAGGUCCACGGA [EX2 B.11] (Eterna round: R97, puzzle: Exclusion 2) | 36.6 | 31.4 |  |  |  |  |
| UCGUAGUCAGGAUAUACAUGAGGAUCACCCAUGUAAAAUUUUAAUUUAAUUUUAAGGUGUAGAAGGGACCAGUU [Ex3 #22] (Eterna round: R97, puzzle: Exclusion 3) | 43.4 | 51.8 |  |  |  |  |
| UCGUCGUCUGCGCCUGGACACAUGAGGAUCACCCAUGUCCCUAGCGGUUUACCGCUGUGACAAAACAAGCUGCUCGU [Eternabot (Original) Solution 25] (Eterna round: R97, puzzle: Sensor, turn-off variant 1) | 145 | 185 |  |  |  |  |
| UCGUGGUUACUCUGCAGUUUCCUGAGCGGAGGCUCUUUGACAUGAGGAUCACCCAUGUUGCUUUUUGCUCAUCUUAA [JR_SV3TOV2_Sub041] (puzzle: Sensor v3, turn-off variant 2) |  |  | 14.2 | 15.8 | 12.4 |  |
| UCGUGUUUAGAGGAUAUAUUAAUAUUUUAAACAAUAGAAGGCUAAACAUGAGGAUCACCCAUGUAUUUGGUUUU [JR_Ex6_Sub055] (Eterna round: R97, puzzle: Exclusion 6) | 46.6 | 233 |  |  |  |  |
| UCGUUCCGUGUAGGAUAUUGGCCUGCUCUGGGUCGAGAAGGACAUGAGGAUCACCCAUGUAUGUUAUUAUCACGCGUGGCGCAU [Design 81] (Eterna round: R96, puzzle: Exclusion NG 1) | 61.7 | 31.8 |  |  |  | 22.9 |
| UCUAGACAUGAGGAUCACCCAUGUGAGGAUAUGAUGCGAUCGUCGAAAGACGAUAGCAUCAGAAGGCACAAAUG [Fiskers Ex 1 - 12] (Eterna round: R96, puzzle: Exclusion 1) | 200 | 72.3 |  |  |  | 53.6 |
| UCUAGACAUGAGGAUCACCCAUGUGAGGAUAUGAUGCGAUCGUCGAAAGACGAUAGCAUCAGAAGGCACAAAUG [Fiskers Ex 1 - 12] (puzzle: Exclusion 1) |  |  | 153 | 56.9 | 69.9 |  |
| UCUAUGAUGCGAGGAUAUCGACCAUUCCUCUUUACAUGAGGAUCACCCAUGUUCGUACGCUACAACGAGAAGGCGCACUAAGAU [JR_ExcNG2_Sub059] (Eterna round: R96, puzzle: Exclusion NG 2) | 438 | 194 |  |  |  | 101 |
| UCUCCCACUCGAGGAUAUCCAUAGAGCAACUGAGGAGAAGGCGAGUGUCCAAAACAUGAGGAUCACCCAUGUGACCUCCCGAAC [Eredgein] (Eterna round: R96, puzzle: Exclusion NG 1) | 101 | 39.6 |  |  |  | 37.5 |
| UCUCCCGCUCGAGGAUAUCCAUAGAGCAACUGAGGAGAAGGCGAGCGUCCUAAACAUGAGGAUCACCCAUGUGACCUCCCGAAC [Zabiledila] (Eterna round: R96, puzzle: Exclusion NG 1) | 55 | 39.1 |  |  |  | 41.2 |
| UCUCCCUGGCGAGGAUAUCCUGUGCGGUUCCGGCUCGUGUCUGUUACAUGAGGAUCACCCAUGUGGGAGAAGGUGCCUGUGGCU [Design 93] (Eterna round: R96, puzzle: Exclusion NG 2) | 141 | 124 |  |  |  | 68 |
| UCUCGACAUGAGGAUCACCCAUGUCAGGAUAUUGUAUUGGAGGUGUUUAACCUUAUGGCAAGAAGGGAUGUGUG [LRO-Excl1-25] (puzzle: Exclusion 1) |  |  |  | 22.9 |  |  |
| UCUCGCGGGCAAGGAUAUCCCACACUGUUCUGGCCCGUGUCUGUUACAUGAGGAUCACCCAUGUGGGAGAAGGUGCACCAGGGC [Design 44] (Eterna round: R96, puzzle: Exclusion NG 2) | 78.8 | 35.9 |  |  |  | 31.6 |

| Sequence | apparent KD of MS2 coat protein (input ligand: FMN 200 uM) [nM] | apparent KD of MS2 coat protein (input ligand: none) [nM] | apparent KD of MS2 coat protein [1] [nM] | apparent KD of MS2 coat protein [2] [nM] | apparent KD of MS2 coat protein [3] [nM] | apparent KD of MS2 coat protein [4] [nM] |
| --- | --- | --- | --- | --- | --- | --- |
| UCUCGCGGGCAAGGAUAUCCUACGUUGUUCUGGCCCGGGCAUGUUACAUGAGGAUCACCCAUGUGGGAGAAGGUGCGCCAGGGC [Design 36] (Eterna round: R96, puzzle: Exclusion NG 2) | 36.8 | 36.7 |  |  |  | 28.2 |
| UCUCUGCGAGGAUAUACGUGCGCGCGCGCGCGCGCGCGCGUACAUGAGGAUCACCCAUGUAGAAGGCGCUCUGC [Apr-15 SS2-3] (puzzle: Exclusion 2) |  |  |  | 19.4 |  |  |
| UCUGCCGCCGUGAGGAUAUGCCCGCGCAAACGCGGGCAGAAGGCACAUGAGGAUCACCCAUGUCCCGCGGUUUU [salish99_bmx4_r4_133] (Eterna round: R97, puzzle: Brourd's mod of Exclusion 4) | 38.7 | 18.3 |  |  |  |  |
| UCUGGUCGAGGAUAUACAUGAGGAUCACCCAUGUAGAUCAACCAGCUUCGGCUGGAAUGUAGAAGGCGACCAGA [E3/5-A6] (Eterna round: R97, puzzle: Exclusion 3) | 149 | 19.8 |  |  |  |  |
| UCUGGUCGAGGAUAUACAUUCGUGCUUCGGCACGUAAGGUCACAUGAGGAUCACCCAUGUAGAAGGCGACCAGA [E2/7-A3] (Eterna round: R97, puzzle: Exclusion 2) | 181 | 38.4 |  |  |  |  |
| UCUGUUGAAGGAUAUGCGUAACGAGUUACGGCUCGAGGUCUACAUGAGGAUCACCCAUGUAGAAGGUCAUCAGA [EX2 #70] (Eterna round: R97, puzzle: Exclusion 2) | 15.8 | 15.1 |  |  |  |  |
| UCUGUUUUGCGAGGAUAUCGACCAUUCCUCUUAACAUGAGGAUCACCCAUGUGCUAAACCUACAACGAGAAGGCGCUCAUACUC [JR_ExcNG2_Sub067] (Eterna round: R96, puzzle: Exclusion NG 2) | 60.8 | 51.9 |  |  |  | 50 |
| UCUUAGUCAGGAUAUACAUGAGGAUCACCCAUGUAAAAUUUUAAUUUAAUUUUAAGGUGUAGAAGGGACCACCC [Ex3 #17] (Eterna round: R97, puzzle: Exclusion 3) | 33.2 | 37.5 |  |  |  |  |
| UCUUAUUGAGGAUAUACAUUAAUUUACAUGAGGAUCACCCAUGUUCUUCAAUGUAUAUAUGUAGAAGGCAGAAGAU [Mat - Exclusion 5 - JL Mod - D29] (Eterna round: R97, puzzle: Exclusion 5) | 41.4 | 18.1 |  |  |  |  |
| UCUUAUUGCAAGGAUAUGCAAAUUAUUAUUAAUGCAGAAGGUGCUACAUGAGGAUCACCCAUGUUUCCGGGAAA [JR_E6_Sub041] (puzzle: Exclusion 6) |  |  | 66.6 | 31.6 | 31.5 |  |
| UCUUAUUGCAAGGAUAUGCAAAUUAUUUUUUAAGCAGAAGGUGCAACAUGAGGAUCACCCAUGUUUCCGGGAAA [JR_E6_Sub039] (puzzle: Exclusion 6) |  |  |  | 23.9 |  |  |
| UCUUGUUGUCCGUGAGAAGACAUGAGGAUCACCCAUGUUAGUUUGAUUAUGAUGUGUAAGUUUGUUGUUCGUUUUAU [JR_STOV1_v2_Sub072] (Eterna round: R97, puzzle: Sensor, turn-off variant 1) | 53.1 | 63.1 |  |  |  |  |
| UCUUUACAUGAGGAUCACCCAUGUGAGGAUAUGGUUUCGCUGGCCGUAGCCAGUGGAACCAGAAGGCGCAUGAU [Mat - Exclusion 1 - JL Mod - D9] (Eterna round: R97, puzzle: Exclusion 1) | 51.4 | 27.9 |  |  |  |  |
| UGAAGGCGAGGAUAUACUGUAUGGGACAUGAGGAUCACCCAUGUUCUGUGUGUACCCGUCGUAGAAGGCGCGAAGA [EX5 C.9] (Eterna round: R97, puzzle: Exclusion 5) | 16 | 14.5 |  |  |  |  |
| UGAAGUAGAGGAUAUACGUGGAAAUAGAUUCAUGUAUAUCUACAUGAGGAUCACCCAUGUAGAAGGCUAUAGAU [JR_Ex2_Sub073] (Eterna round: R97, puzzle: Exclusion 2) | 22.8 | 22.4 |  |  |  |  |
